Test results from patent US20030232387A1.

Target: mutant αEβ7 integrin, αE ΔE163-E180, on transfected K562 cells (human) (UniProt P38570)
Assay: flow cytometry on K562 cells expressing mutant αEβ7

Sequence of mutant αEβ7 integrin, αE ΔE163-E180, on transfected K562 cells (human) (P38570 other isoform, or with tags, fused parts or gaps mutant, chain 1 of 2): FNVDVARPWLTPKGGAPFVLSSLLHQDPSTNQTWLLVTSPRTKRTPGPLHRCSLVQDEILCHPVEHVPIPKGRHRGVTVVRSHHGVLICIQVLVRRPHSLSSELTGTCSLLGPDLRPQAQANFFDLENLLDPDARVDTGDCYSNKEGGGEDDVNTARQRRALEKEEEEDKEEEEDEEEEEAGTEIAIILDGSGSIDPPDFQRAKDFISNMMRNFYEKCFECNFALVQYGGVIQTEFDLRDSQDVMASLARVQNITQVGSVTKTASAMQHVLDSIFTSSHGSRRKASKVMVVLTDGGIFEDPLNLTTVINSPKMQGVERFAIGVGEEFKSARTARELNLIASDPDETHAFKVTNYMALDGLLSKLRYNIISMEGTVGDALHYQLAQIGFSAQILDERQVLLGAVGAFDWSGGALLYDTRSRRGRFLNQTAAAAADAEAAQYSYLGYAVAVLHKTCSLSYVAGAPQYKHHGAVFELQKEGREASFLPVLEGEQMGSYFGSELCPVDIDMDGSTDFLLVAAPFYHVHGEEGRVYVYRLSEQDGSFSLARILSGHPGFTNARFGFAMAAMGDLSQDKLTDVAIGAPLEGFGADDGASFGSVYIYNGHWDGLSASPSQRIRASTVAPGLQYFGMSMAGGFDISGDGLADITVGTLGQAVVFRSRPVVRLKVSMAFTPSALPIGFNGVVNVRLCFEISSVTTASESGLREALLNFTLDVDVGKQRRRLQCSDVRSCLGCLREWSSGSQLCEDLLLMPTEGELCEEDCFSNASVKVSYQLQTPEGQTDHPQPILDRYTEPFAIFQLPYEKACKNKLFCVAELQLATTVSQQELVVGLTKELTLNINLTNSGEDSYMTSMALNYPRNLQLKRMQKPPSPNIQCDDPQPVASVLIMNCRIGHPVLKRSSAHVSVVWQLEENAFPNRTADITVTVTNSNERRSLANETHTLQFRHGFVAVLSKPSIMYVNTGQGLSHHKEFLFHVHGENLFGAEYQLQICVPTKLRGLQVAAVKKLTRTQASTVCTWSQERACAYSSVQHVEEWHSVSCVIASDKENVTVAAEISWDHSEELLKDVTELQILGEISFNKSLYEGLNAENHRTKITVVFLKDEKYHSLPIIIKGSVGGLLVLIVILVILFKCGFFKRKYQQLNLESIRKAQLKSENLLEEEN
Sequence of mutant αEβ7 integrin, αE ΔE163-E180, on transfected K562 cells (human) (chain, as listed by the source mutant, chain 2 of 2): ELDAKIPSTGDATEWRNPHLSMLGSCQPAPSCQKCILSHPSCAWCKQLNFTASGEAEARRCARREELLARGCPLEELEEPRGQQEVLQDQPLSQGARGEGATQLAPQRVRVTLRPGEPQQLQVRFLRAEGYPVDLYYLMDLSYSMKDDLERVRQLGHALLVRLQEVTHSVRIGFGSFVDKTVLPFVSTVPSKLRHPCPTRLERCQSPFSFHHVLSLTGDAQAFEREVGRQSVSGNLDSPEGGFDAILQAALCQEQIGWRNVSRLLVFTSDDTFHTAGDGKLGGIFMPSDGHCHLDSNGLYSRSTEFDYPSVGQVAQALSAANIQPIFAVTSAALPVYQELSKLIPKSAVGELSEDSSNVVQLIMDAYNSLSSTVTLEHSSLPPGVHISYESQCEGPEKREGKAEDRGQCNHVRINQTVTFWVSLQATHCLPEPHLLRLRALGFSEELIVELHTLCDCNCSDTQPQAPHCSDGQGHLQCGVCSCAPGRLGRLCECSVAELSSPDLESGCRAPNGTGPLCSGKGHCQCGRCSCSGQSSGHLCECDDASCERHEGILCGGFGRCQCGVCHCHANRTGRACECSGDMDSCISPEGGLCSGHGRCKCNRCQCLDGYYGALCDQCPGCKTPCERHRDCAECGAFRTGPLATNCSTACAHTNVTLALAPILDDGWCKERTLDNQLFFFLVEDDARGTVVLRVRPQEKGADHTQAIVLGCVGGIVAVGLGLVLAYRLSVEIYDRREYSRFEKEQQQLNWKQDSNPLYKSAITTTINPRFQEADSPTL

B1: mAb 5E4 (antibody, V domains shown)
VH: EVQLVESGGGLVQPGGSLRLSCAASGFTFSNFWMSWVRQAPGKGLEWMANIKQDGSEKYYVDSVKGRFTISRDNAKSSLFLQMNSLRVDDTAVYFCAGDYYDSGSFYWGQGTLVTVSS
VL: EIVLTQSPATLSLSPGERATLSCRASQSVRSNLAWYQQKPGQAPRLLIYDASNRAIGIPARFSGSGSGTDFTLTISSLEPEDFVVYYCQQRSNWPPWTFGQGTKVEIK
% Control Staining: 25%
